Experimental data as given in patent US20190062394A1.

Columns and labels:
[1] = tested on: Destabilized IL-12 #2
[2] = tested on: Destabilized IL-12 #4
[3] = tested on: Destabilized IL-12 #5
[4] = target: Destabilized IL-12 #2; assay: cell-based or functional assay
[5] = target: Destabilized IL-12 #5; assay: cell-based or functional assay
[6] = target: T1, Destabilized IL-12 #11
T1 chain: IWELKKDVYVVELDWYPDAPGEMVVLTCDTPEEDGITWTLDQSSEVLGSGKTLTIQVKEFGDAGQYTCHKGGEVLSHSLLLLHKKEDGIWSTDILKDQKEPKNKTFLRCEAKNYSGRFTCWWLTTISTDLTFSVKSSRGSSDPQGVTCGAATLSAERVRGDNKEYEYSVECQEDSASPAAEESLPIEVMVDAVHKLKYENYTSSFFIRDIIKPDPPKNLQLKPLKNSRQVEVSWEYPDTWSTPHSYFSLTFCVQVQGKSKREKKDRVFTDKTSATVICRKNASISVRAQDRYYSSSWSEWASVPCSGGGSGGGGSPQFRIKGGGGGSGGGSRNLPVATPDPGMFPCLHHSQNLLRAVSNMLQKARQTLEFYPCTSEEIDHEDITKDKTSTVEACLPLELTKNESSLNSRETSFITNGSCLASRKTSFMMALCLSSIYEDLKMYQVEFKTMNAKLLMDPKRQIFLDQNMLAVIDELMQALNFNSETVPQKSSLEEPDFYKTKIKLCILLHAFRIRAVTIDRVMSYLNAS

[7] = target: T2, Destabilized IL-12 #12
T2 chain: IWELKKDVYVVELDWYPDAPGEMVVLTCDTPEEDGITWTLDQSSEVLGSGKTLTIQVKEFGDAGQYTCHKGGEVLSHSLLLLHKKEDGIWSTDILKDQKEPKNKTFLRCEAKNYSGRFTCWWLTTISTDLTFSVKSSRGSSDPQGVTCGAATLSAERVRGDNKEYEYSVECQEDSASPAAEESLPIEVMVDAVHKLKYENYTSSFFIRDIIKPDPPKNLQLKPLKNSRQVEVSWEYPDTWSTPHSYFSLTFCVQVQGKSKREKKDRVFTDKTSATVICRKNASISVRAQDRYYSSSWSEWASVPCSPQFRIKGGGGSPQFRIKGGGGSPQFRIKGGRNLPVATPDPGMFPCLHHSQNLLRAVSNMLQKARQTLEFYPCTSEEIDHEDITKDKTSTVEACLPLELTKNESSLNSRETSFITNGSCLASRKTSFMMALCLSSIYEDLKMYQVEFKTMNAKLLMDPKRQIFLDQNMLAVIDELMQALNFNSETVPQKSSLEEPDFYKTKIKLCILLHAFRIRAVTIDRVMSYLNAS

[8] = target: T3, Destabilized IL-12 #18
T3 chain: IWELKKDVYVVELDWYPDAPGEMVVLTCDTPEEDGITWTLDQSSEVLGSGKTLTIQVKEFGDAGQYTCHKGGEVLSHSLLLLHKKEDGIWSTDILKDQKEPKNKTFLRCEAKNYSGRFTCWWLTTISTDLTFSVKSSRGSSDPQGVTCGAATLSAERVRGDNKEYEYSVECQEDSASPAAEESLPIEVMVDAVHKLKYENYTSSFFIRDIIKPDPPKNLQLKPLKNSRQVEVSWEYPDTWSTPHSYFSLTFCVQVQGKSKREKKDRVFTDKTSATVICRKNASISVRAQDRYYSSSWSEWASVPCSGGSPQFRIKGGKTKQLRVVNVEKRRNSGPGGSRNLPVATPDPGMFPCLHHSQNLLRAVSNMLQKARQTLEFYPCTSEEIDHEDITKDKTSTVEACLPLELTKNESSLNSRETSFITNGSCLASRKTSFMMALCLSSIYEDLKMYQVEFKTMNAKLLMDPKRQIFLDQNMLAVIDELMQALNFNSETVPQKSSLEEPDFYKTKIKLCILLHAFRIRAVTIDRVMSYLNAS

[9] = target: T4, Destabilized IL-12 #21
T4 chain: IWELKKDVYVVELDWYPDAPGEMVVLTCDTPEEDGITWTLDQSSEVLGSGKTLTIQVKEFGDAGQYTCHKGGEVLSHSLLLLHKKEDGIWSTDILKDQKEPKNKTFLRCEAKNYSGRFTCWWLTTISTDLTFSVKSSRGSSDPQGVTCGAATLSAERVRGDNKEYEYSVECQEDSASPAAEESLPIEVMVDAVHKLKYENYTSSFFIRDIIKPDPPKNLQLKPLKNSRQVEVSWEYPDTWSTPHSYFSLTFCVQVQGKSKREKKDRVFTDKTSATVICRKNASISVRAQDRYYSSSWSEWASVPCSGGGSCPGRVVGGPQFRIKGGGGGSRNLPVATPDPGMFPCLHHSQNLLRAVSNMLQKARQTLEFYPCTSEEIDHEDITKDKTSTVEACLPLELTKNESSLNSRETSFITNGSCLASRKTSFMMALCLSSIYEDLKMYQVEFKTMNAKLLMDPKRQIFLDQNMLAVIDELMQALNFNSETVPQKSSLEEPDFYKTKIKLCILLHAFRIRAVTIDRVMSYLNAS

[10] = target: T5, Destabilized IL-12 #27
T5 chain: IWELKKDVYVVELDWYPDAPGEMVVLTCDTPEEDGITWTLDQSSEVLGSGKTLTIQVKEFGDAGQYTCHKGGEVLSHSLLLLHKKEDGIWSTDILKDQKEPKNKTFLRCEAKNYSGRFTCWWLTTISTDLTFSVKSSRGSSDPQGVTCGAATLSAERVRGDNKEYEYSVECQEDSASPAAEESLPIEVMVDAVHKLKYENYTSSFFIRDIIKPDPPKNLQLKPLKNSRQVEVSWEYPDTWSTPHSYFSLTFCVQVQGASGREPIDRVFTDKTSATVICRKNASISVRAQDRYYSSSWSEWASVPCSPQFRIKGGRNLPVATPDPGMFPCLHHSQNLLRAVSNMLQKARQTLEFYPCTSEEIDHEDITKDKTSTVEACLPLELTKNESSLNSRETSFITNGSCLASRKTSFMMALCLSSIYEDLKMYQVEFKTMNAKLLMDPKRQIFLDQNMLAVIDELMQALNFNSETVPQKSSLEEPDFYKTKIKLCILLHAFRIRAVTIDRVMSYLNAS

Destabilized IL-12 #4, sequence (chain, as listed by the source): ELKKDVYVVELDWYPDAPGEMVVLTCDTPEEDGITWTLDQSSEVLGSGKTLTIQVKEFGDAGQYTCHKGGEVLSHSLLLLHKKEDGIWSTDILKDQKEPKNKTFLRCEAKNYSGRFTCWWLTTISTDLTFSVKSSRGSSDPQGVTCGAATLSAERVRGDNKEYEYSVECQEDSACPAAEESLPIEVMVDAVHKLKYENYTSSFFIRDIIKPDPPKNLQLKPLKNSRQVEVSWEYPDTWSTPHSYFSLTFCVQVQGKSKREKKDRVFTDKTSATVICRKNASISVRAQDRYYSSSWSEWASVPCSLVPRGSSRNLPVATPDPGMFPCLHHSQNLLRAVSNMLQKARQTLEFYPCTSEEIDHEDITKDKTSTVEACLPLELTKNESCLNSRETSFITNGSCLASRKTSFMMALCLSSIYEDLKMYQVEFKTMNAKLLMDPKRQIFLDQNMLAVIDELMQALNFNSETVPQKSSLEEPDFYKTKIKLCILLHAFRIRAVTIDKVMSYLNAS

With thrombin the “fold reduction in biological activity (NK-92 assay) after thrombin digestion, against wild-type single chain IL-12” value (“fold reduction in biological activity” for short) [1] was “(~11 fold decrease*)”, the “thrombin cleavage (67 U/mL, 20 hours, 37 degrees C), anti-p35 immunoblot, reducing conditions” value [1] was “Under reducing conditions, thrombin cleavage of all three IL-12 mutants was detected” and the “thrombin cleavage (67 U/mL, 20 hours, 37 degrees C), anti-p40 immunoblot, reducing conditions” value [1] was “Under reducing conditions, thrombin cleavage of all three IL-12 mutants was detected”. The “fold reduction in biological activity” value [2] was “(~1.5 fold decrease*)”, the “thrombin cleavage (67 U/mL, 20 hours, 37 degrees C), anti-p35 immunoblot, non-reducing conditions” value [2] was “under non-reducing conditions, thrombin cleavage of Destabilized #4 was not detected” and the “thrombin cleavage (67 U/mL, 20 hours, 37 degrees C), anti-p35 immunoblot, reducing conditions” value [2] was “Under reducing conditions, thrombin cleavage of all three IL-12 mutants was detected”. The “thrombin cleavage (67 U/mL, 20 hours, 37 degrees C), anti-p40 immunoblot, non-reducing conditions” value [2] was “under non-reducing conditions, thrombin cleavage of Destabilized #4 was not detected”, the “thrombin cleavage (67 U/mL, 20 hours, 37 degrees C), anti-p40 immunoblot, reducing conditions” value [2] was “Under reducing conditions, thrombin cleavage of all three IL-12 mutants was detected” and the “fold reduction in biological activity” value [3] was “(~9 fold decrease*)”. For the same molecule, the “thrombin cleavage (67 U/mL, 20 hours, 37 degrees C), anti-p35 immunoblot, reducing conditions” value [3] was “Under reducing conditions, thrombin cleavage of all three IL-12 mutants was detected” and the “thrombin cleavage (67 U/mL, 20 hours, 37 degrees C), anti-p40 immunoblot, reducing conditions” value [3] was “Under reducing conditions, thrombin cleavage of all three IL-12 mutants was detected”.

Molecule thrombin (enzyme) has a thrombin dose needed to reduce IFNg secretion of NK-92 cells (HTRF) [4] of 10 U/mL and a thrombin dose needed to reduce IFNg secretion of NK-92 cells (HTRF) [5] of 10 U/mL.

B1: human Plasmin (23.3 Units/mg; Millipore) (protein)
chain: KVYLSECKTGNGKNYRGTMSKTKNGITCQKWSSTSPHRPRFSPATHPSEGLEENYCRNPDNDPQGPWCYTTDPEKRYDYCDILECEEECMHCSGENYDGKISKTMSGLECQAWDSQSPHAHGYIPSKFPNKNLKKNYCRNPDRELRPWCFTTDPNKRWELCDIPRCTTPPPSSGPTYQCLKGTGENYRGNVAVTVSGHTCQHWSAQTPHTHNRTPENFPCKNLDENYCRNPDGKRAPWCHTTNSQVRWEYCKIPSCDSSPVSTEQLAPTAPPELTPVVQDCYHGDGQSYRGTSSTTTTGKKCQSWSSMTPHRHQKTPENYPNAGLTMNYCRNPDADKGPWCFTTDPSVRWEYCNLKKCSGTEASVVAPPPVVLLPDVETPSEEDCMFGNGKGYRGKRATTVTGTPCQDWAAQEPHRHSIFTPETNPRAGLEKNYCRNPDGDVGGPWCYTTNPRKLYDYCDVPQCAAPSFDCGKPQVEPKKCPGRVVGGCVAHPHSWPWQVSLRTRFGMHFCGGTLISPEWVLTAAHCLEKSPRPSSYKVILGAHQEVNLEPHVQEIEVSRLFLEPTRKDIALLKLSSPAVITDKVIPACLPSPNYVVADRTECFITGWGETQGTFGAGLLKEAQLPVIENKVCNRYEFLNGRVQSTELCAGHLAGGTDSCQGDSGGPLVCFEKDKYILQGVTSWGLGCARPNKPGVYVRVSRFVTWIEGVMRNN
In the case of B1, the “proteolytic digestion, 1 hour, reducing SDS-PAGE and anti-p40 Western blot” value [6] is reported as “Partial digestion of DSIL-12#11, DSIL-12#12, DSIL-12#21 and DSIL-12#18 was detected with as little as 0.05 mU of plasmin”, the “proteolytic digestion, 1 hour, reducing SDS-PAGE and anti-p40 Western blot” value [7] is reported as “Partial digestion of DSIL-12#11, DSIL-12#12, DSIL-12#21 and DSIL-12#18 was detected with as little as 0.05 mU of plasmin” and the “proteolytic digestion, 1 hour, reducing SDS-PAGE and anti-p40 Western blot” value [8] is reported as “Partial digestion of DSIL-12#11, DSIL-12#12, DSIL-12#21 and DSIL-12#18 was detected with as little as 0.05 mU of plasmin”. For the same molecule, the “proteolytic digestion, 1 hour, reducing SDS-PAGE and anti-p40 Western blot” value [9] was “Partial digestion of DSIL-12#11, DSIL-12#12, DSIL-12#21 and DSIL-12#18 was detected with as little as 0.05 mU of plasmin” and the “proteolytic digestion, 1 hour, reducing SDS-PAGE and anti-p40 Western blot” value [10] was 2.5 mU of plasmin were required for partial digestion of DSIL-12#27.
